One molecule from US20260263521A1 (AIMED BIO, published 2026) can be followed below.

Assay [1] concerns the target T1, human CD200R1 expressed on cells (Jurkat-CD200R1, U937-CD200R1, HH cells) (human, UniProt Q8TD46 25-348).
T1 sequence (looked up): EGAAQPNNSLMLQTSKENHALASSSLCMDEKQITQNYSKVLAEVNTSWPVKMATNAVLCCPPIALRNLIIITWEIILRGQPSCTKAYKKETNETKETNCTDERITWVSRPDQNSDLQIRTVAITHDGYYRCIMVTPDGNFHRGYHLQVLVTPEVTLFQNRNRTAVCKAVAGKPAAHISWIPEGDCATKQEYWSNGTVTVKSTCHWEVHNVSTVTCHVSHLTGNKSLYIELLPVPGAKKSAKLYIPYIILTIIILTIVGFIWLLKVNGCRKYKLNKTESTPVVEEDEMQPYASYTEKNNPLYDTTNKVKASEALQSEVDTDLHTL
The assay is described as follows: cell-based or functional assay.

The target of assay [2] is T1, human CD200R1 expressed on cells …. Kind of assay: flow cytometry, HH cells. On the procedure:
Two additional wells were treated with 10 μl of mouse IgG1K (BD, #555751) and 5 μl of commercial CD200R1 antibody (Biolegend, #329308) to determine CD200R1 expression on the cell line surface for cell quality control.
The antibodies were serially diluted 10-fold from a maximum concentration of 100 nM to 10 nM, 1 nM, […], and were added to the pre-seeded cells. After reaction for 1 hour at 4° C., the cells were treated with Alexa-647 goat anti-human IgG (H+L) cross-adsorbed secondary antibody (Invitrogen, #A21445) and incubated for an additional 30 minutes at 4° C. After washing twice with FACS buffer, flow cytometry was performed using a Novocyte Flow cytometer (Agilent). Using GraphPad Prism software, the EC₅₀ was determined using a nonlinear graph model of log (agonist) vs. response-variable slope, as shown in Table 32.
On the technique in general: A flow cytometer gives signals particle by particle.

For assay [3] the target is unchanged. Kind of assay: flow cytometry on Jurkat-CD200R1 and HH cells, 500 nM antibody in IgG1 form. The gist of the method: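 Cells at 1×10⁵ per well incubated with antibody 1 h at 4 °C, then Alexa-647 anti-human IgG (H+L) secondary for 30 min at 4 °C. After two washes, binding read by flow cytometry.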
A further assay concerns the target T2, Hybrid CD200R1 MH (mouse;human, UniProt Q9ES57;Q8TD46).
T2 construct: single domain; mouse D1 over human D2; also called MH hybrid domain; P001 MH domain
T2 sequence (hybrid extracellular part, looked up): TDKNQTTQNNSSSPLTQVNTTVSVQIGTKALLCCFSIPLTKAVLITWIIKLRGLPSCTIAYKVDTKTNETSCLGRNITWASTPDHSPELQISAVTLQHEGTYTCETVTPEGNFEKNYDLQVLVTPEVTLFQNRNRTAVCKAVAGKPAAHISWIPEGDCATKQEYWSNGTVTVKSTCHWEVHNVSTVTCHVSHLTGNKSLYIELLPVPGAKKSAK
The assay is described as follows: ELISA, plate-bound MH hybrid (1 ug/mL), antibody 0.0192-300 nM, O.D 450 nm; panel 'P001 MH domain-2)'. On the procedure:
Recombinant proteins were produced from the extracellular Ig-like V-type domain and Ig-like C2-type domain of human CD200R1, each designed as human-mouse (HM hybrid domain) and mouse-human (MH hybrid domain) recombinant proteins. A 96-well plate was coated at a concentration of 1 μg/mL with each protein at 4° C. for 16 hours and blocked with 3% skim milk. […] After color development with TMB substrate solution (Thermo Scientific, 34029, 1-Step™ Ultra TMB-ELISA Substrate Solution), the color reaction was stopped with a stop solution (Invitrogen, SS04, ELISA Stop Solution), and the absorbance was measured at an O.D. of 450 nm.

The target in assay [4] is T3, human CD200RLa (Sino Biological, 11620-H08H) recombinant protein (human, UniProt Q6Q8B3 24-239).
T3 construct: Bought; construct not described
T3 sequence (looked up): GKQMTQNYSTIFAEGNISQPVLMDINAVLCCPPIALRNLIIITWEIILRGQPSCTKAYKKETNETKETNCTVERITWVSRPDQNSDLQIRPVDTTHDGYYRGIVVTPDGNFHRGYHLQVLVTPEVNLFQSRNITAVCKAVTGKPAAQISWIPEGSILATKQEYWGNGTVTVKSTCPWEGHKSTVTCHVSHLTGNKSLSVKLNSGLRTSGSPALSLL
Kind of assay: ELISA, plate-bound human CD200RLa (2 ug/mL), antibody 0.0192-300 nM, O.D 450 nm; panel 'recombinant human CD200RLa'. The procedure, abridged: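 Plates coated overnight (16 h, 4° C) with human or cynomolgus CD200RLa recombinant protein, blocked with 3% skim milk; bound antibody detected by TMB colour development, reaction stopped before reading.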
For orientation: ELISA stands for enzyme-linked immunosorbent assay.

For assay [5], the target named is T4, monkey CD200RLa (Sino Biological, 11576-C02H) recombinant protein (monkey (cyno), UniProt A0A2K5W6R0 30-246).
T4 construct: Bought; construct not described; also called cyno CD200RLa
T4 sequence: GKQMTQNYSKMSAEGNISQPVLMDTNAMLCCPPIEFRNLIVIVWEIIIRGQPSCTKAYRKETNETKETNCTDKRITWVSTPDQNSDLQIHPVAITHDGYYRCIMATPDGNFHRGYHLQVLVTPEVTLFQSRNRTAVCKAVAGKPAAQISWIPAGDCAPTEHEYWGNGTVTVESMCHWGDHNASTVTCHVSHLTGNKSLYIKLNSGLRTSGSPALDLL
The assay is described as follows: ELISA, plate-bound monkey CD200RLa (2 ug/mL), antibody 0.0192-300 nM, O.D 450 nm; panel 'recombinant cynomolgus CD200RLa/Fc'. On the procedure:
96-well plates were coated with human CD200RLa (Sino Biological, 11620-H08H) and monkey CD200RLa (Sino Biological, 11576-C02H) recombinant proteins at a concentration of 2 μg/mL at 4° C. for 16 hours, and blocked with 3% skim milk for 1 hour. […] Color was developed with a TMB substrate solution (Thermo Scientific, 34029, 1-Step™ Ultra TMB-ELISA Substrate Solution). The color reaction was stopped with stop solution (Invitrogen, SS04, ELISA Stop Solution).

B1: P001009 (IgG) (antibody, V domains shown)
VH: EVQLLESGGGLVQPGGSLRLSCAASGFTFSSYDMSWVRQAPGKGLEWVSWISHGGGSIYYADSVKGRFTISRDNSKNTLYLQMNSLRAEDTAVYYCARDAPAYSAPLFDYWGQGTLVTVSS
VL: QSVLTQPPSASGTPGQRVTISCSGSSSNIGNNAVNWYQQLPGTAPKLLIYYDSNRPSGVPDRFSGSKSGTSASLAISGLRSEDEADYYCAAWDDSLSGYVFGGGTKLTVL
notes: also called P001009 WT; P001009 wt
One may read the EC50 as the concentration needed to bring the measured effect to its halfway point. Take B1: the “IC50 (nM) of IL-6 inhibition, LPS-treated U937-CD200R1 cells” value in assay [1] came to 0.35 nM. Also, the “IC50 (nM) of TNF-α inhibition, LPS-treated U937-CD200R1 cells” value in assay [1] was 0.62 nM. For the same molecule, the midpoint of the response in assay [2], the EC50, lay at 0.19 nM. Besides, the “MFI normalized to P001017 (chimeric OX108), %” value in assay [3] was > 50%. Also, the binding result (with Hybrid CD200R1 MH; in assay [4]; in assay [5]) was “no binding (tested: 300 nM)” throughout.
